Positions count from the first letter of the chain named.
Columns and labels:
rPEDF variant S114E = test system: T1, rPEDF variant S114E
T1 sequence: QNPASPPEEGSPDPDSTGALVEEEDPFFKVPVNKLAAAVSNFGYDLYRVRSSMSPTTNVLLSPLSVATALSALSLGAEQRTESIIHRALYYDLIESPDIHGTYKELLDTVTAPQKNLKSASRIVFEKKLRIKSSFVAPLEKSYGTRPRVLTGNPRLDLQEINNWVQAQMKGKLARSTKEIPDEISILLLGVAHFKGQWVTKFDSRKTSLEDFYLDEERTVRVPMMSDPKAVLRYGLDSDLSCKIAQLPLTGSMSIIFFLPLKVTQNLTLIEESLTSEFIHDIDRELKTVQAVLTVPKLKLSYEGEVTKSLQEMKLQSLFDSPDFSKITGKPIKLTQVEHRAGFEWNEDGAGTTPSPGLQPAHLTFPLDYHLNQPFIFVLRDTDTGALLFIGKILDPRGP

rPEDF variant S24E = test system: T2, rPEDF variant S24E
T2 sequence: T1 sequence with S5E, E95S

[1] = test system: T3, rPEDF double variant S24,114A
T3 sequence: T1 sequence with S5A, E95A

rPEDF variant S24A = test system: T4, rPEDF variant S24A
T4 sequence: T1 sequence with S5A, E95S

[2] = test system: T5, PEDF purified from human plasma
T5 sequence: T1 sequence with E95S

[3] = test system: T6, recombinant PEDF (recombinant wild-type human pigment epithelium derived factor)
T6 sequence: T1 sequence with E95S

rPEDF variant S114A = test system: T7, rPEDF variant S114A
T7 sequence: T1 sequence with E95A

[4] = test system: T8, rPEDF double variant S24,114E
T8 sequence: T1 sequence with S5E

rPEDF variant S227E = test system: T9, rPEDF variant S227E
T9 sequence: T1 sequence with E95S, S208E

rPEDF variant S227A = test system: T10, rPEDF variant S227A
T10 sequence: T1 sequence with E95S, S208A

| Substance | in vitro CK2 phosphorylation (autoradiography) (rPEDF variant S114E) | in vitro CK2 phosphorylation (autoradiography) (rPEDF variant S24E) | in vitro CK2 phosphorylation (autoradiography) [1] | in vitro CK2 phosphorylation (autoradiography) (rPEDF variant S24A) | in vitro CK2 phosphorylation ([γ32P]-ATP, autoradiography) [2] | in vitro CK2 phosphorylation ([γ32P]-ATP, autoradiography) [3] | in vitro CK2 phosphorylation (autoradiography) (rPEDF variant S114A) | in vitro CK2 phosphorylation (autoradiography) [4] | in vitro PKA phosphorylation ([γ32P]-ATP, heparin, autoradiography) [2] | in vitro PKA phosphorylation (autoradiography) (rPEDF variant S227E) | in vitro PKA phosphorylation ([γ32P]-ATP, heparin, autoradiography) [3] | in vitro PKA phosphorylation (autoradiography) (rPEDF variant S227A) |
| --- | --- | --- | --- | --- | --- | --- | --- | --- | --- | --- | --- | --- |
| recombinant human CK2 (casein kinase 2) | both S114E and S24,114E mutations significantly increased CK2 phosphorylation compared with CK2 phosphorylation of rPEDF | the S24E mutation reduced phosphorylation only to a moderate extent | the double variant S24,114A almost completely abolished this phosphorylation | Mutation of S24A significantly reduced CK2 phosphorylation | Both rPEDF and plPEDF were phosphorylated by CK2; CK2 phosphorylation of rPEDF was stronger than the phosphorylation of plPEDF | Both rPEDF and plPEDF were phosphorylated by CK2; CK2 phosphorylation of rPEDF was stronger than the phosphorylation of plPEDF | The S114A variant significantly reduced CK2 phosphorylation | both S114E and S24,114E mutations significantly increased CK2 phosphorylation compared with CK2 phosphorylation of rPEDF | – | – | – | – |
| catalytic subunit of PKA | – | – | – | – | – | – | – | – | Both rPEDF and plPEDF were equally phosphorylated by PKA in the presence of heparin | Mutation of Ser227 to Ala or to Glu completely abolished PKA phosphorylation | Both rPEDF and plPEDF were equally phosphorylated by PKA in the presence of heparin | Mutation of Ser227 to Ala or to Glu completely abolished PKA phosphorylation |

Source: patent US20090269320
